From patent publication US20250262316A1 (BIO THERA SOLUTIONS, published 2025)
Positions count from the first letter of the chain named.

T1: Lag3 (NCBI Reference Sequence: NP_002277.4) on Lag3-CHO cells (UniProt P18627 23-525, limits assumed)
T1 construct: whole, on cells
T1 sequence (looked up): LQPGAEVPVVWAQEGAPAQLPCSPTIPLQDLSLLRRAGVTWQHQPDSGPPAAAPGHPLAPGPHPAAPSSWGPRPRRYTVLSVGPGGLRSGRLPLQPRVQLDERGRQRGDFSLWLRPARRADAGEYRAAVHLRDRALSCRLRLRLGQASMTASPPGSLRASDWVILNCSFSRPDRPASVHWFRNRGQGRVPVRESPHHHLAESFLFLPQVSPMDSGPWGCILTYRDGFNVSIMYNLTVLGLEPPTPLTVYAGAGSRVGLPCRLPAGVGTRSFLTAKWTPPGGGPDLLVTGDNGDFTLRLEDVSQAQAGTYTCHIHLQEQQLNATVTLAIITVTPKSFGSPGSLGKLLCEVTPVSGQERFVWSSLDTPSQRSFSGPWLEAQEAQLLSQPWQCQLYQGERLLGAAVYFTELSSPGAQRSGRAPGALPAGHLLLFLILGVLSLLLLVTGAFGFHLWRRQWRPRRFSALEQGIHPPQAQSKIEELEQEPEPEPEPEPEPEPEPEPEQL

T2: B7-H3 on MDA-MB-468 cells (human, UniProt Q5ZPR3)
T2 construct: endogenous, on the cell surface
T2 sequence (cell surface antigen, looked up): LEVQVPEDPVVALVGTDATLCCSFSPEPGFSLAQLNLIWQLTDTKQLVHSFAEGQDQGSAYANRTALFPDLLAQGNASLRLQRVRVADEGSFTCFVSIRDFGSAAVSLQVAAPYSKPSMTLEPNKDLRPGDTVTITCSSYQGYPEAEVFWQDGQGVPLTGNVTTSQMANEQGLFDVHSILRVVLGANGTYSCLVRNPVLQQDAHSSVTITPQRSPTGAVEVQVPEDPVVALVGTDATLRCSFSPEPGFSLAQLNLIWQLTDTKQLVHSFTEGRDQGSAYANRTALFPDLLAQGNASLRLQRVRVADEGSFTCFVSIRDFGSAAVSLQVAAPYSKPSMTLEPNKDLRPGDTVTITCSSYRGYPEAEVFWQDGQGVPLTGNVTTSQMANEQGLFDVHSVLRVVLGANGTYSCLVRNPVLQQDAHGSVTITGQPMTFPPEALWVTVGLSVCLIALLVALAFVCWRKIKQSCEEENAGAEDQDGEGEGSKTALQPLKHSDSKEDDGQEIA

T3: B7-H3 (NCBI Reference Sequence: NP_001019907.1) on CHO-K1-B7-H3 cells (human, UniProt Q5ZPR3 29-534)
T3 sequence: T2 sequence (cell surface antigen, looked up)

T4: B7-H3 on Calu-6 cells (UniProt Q5ZPR3 29-534, limits assumed)
T4 sequence (looked up): T2 sequence (cell surface antigen, looked up)

T5: antigen hB7-H3-His (human, UniProt Q5ZPR3 29-461)
T5 construct: residues 1-28 are left out on that ground
T5 sequence: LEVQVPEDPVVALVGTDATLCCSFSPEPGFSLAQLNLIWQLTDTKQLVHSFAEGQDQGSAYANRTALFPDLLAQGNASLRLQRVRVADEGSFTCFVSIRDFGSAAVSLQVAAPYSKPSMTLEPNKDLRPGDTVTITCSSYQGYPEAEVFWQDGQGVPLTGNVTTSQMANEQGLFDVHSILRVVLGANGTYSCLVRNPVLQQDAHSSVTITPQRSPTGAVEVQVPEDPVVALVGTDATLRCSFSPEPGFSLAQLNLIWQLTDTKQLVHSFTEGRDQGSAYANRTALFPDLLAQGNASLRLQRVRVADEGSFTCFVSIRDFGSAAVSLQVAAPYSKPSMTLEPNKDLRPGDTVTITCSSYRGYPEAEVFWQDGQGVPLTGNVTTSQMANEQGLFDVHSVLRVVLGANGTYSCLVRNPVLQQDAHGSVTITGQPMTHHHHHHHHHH

B1: Antibody M1 (antibody, human IgG1, kappa, V domains shown)
VH: QVQLQQSGPELVKPGASVRISCKASGYTFTDYDINWVQQRPGQGLEWIGWIFPGDDTTKYNEKFKGRATLTADKSSNTAYMQLNGLTSENSAVYFCARSPSFDYWGQGTLVTVSS
VL: QIVLTQSPAIMSASPGERVTMTCSASSTIGFMYWYQQKPGTSPKRWIYDTSKLASGVPARFSVSGSGTSYSLTISSMEAEDAATYYCHQRSSYPTFGGGTKLEIKR
notes: Chimeric antibody: murine variable regions on human IgG1 and light chain constant regions; expressed in HEK293F cells; also called chimeric antibody M1
B2: control Antibody M30-H1-L4 (antibody, human IgG1, kappa, V domains shown)
VH: QVQLVQSGAEVKKPGSSVKVSCKASGYTFTNYVMHWVRQAPGQGLEWMGYINPYNDDVKYNEKFKGRVTITADESTSTAYMELSSLRSEDTAVYYCARWGYYGSPLYYFDYWGQGTLVTVSS
VL: EIVLTQSPATLSLSPGERATLSCRASSRLIYMHWYQQKPGQAPRPLIYATSNLASGIPARFSGSGSGTDFTLTISSLEPEDFAVYYCQQWNSNPPTFGQGTKVEIKR
notes: Control anti-B7-H3 antibody
B3: Antibody V2 (antibody, human IgG1, kappa, V domains shown)
VH: EVQLVQSGAEVKKSGESLKISCKASGYTFTDYDINWVRQMPGKGLEWIGWIFPGDDTTKYNEKFKGQVTLSADKSTNTAYMQWSSLKASDTAMYYCARSPSFDYWGQGTLVTVSS
VL: QIVLTQSPGTLSLSPGERATLSCSASSTIGFMYWYQQKPGQAPRRWIYDTSKLASGVPDRFSVSGSGTDYTLTISRLEPEDFAVYYCHQRSSYPTFGQGTKVEIKR
notes: Humanized from chimeric antibody M1; also called humanized antibody V2
B4: Antibody V1 (antibody, human IgG1, kappa, V domains shown)
VH: B3 VH with I48M, L70I, M81L
VL: B3 VL
notes: Humanized from chimeric antibody M1; also called humanized antibody V1
B5: Antibody V5 (antibody, human IgG1, kappa, V domains shown)
VH: QVQLVQSGAEVKKPGASVKVSCKASGYTFTDYDINWVRQAPGQRLEWIGWIFPGDDTTKYNEKFKGRATLTADKSASTAYMELSSLRSEDTAVYYCARSPSFDYWGQGTLVTVSS
VL: QIVLTQSPSSLSASVGDRVTITCSASSTIGFMYWYQQKPGKAPKRWIYDTSKLASGVPSRFSVSGSGTDYTLTISSLQPEDFATYYCHQRSSYPTFGQGTKVEIKR
notes: Humanized from chimeric antibody M1; also called humanized antibody V5
B6: ADC2 (control drug) (antibody, human IgG1, kappa, V domains shown)
VH: B3 VH
VL: B3 VL with V63G
modifications: MC-GGFG-DXD (Deruxtecan) conjugated after TCEP reduction; DAR (p) 3.7 for the whole antibody; sites not stated
B7: Antibody M2 (antibody, human IgG1, kappa, V domains shown)
VH: B1 VH
VL: DIKMTQSPSSMYASLGERVTITCKASQDINRFLSWFQQKPGKSPKTLIYRANRLRDGVPSRFSGNGSGQDYSLTISSLEYEDMGIYYCLQYDEFPPFTFGSGTKLEIKR
notes: Chimeric antibody: murine variable regions on human IgG1 and light chain constant regions; expressed in HEK293F cells; also called chimeric antibody M2

What follows are binders tested against T6, VISTA (NCBI Reference Sequence: NP_071436.1) on VISTA-CHO cells (UniProt Q9H7M9 33-311, limits assumed) (assay: flow cytometry on VISTA-CHO cells, PE anti-human IgG Fc secondary).
T6 construct: whole, on cells

| binding result | Binder |
| --- | --- |
| no binding (tested: 100 nM) | B1 |
| no binding (tested: 100 nM) | B2 |

Each binder was assayed against T1, Lag3 (NCBI Reference Sequence: …) (assay: flow cytometry on Lag3-CHO cells; blank P3 0.5%; the filing says V1-V5 did not bind).

| % of cells in gate P3 at 100 nM [%] | Binder |
| --- | --- |
| 5.6 | B3 |
| 3.2 | B4 |
| 0.4 | B5 |

What follows are binders tested against T7, Tim3 (NCBI Reference Sequence: NP_116171.3) on Tim3-CHO cells (UniProt Q8TDQ0 22-301, limits assumed) (assay: flow cytometry on Tim3-CHO cells, PE anti-human IgG Fc secondary).
T7 construct: whole, on cells

| binding result | Binder |
| --- | --- |
| no binding (tested: 100 nM) | B1 |
| no binding (tested: 100 nM) | B2 |

Each binder was assayed against T7, Tim3 (NCBI Reference Sequence: …) (assay: flow cytometry on Tim3-CHO cells; blank P3 0.2%; the filing says V1-V5 did not bind).

| % of cells in gate P3 at 100 nM [%] | Binder |
| --- | --- |
| 1.8 | B3 |
| 1.7 | B4 |
| 0.1 | B5 |

Each binder was assayed against T2, B7-H3 on MDA-MB-468 cells (assay: flow cytometry on MDA-MB-468 cells; blank V2-R 0.9%).

| % of cells in gate V1-R at 0.411 nM [%] | % of cells in gate V1-R at 1.23 nM [%] | % of cells in gate V1-R at 3.7 nM [%] | % of cells in gate V1-R at 11.11 nM [%] | % of cells in gate V1-R at 33.33 nM [%] | % of cells in gate V1-R at 100 nM [%] | Binder |
| --- | --- | --- | --- | --- | --- | --- |
| 1.2 | 1.3 | 60.1 | 97.8 | 99.7 | 99.4 | B3 |
| 1.4 | 8.6 | 92.7 | 99.5 | 99.6 | 99.7 | B4 |
| 31.6 | 73.5 | 92.6 | 99.3 | 99.6 | 99.7 | B5 |
| 26.5 | 93.1 | 98.7 | 99.5 | 99.7 | 99.7 | B1 |
| 1.1 | 4 | 38.4 | 97.2 | 98.8 | 99.3 | B2 |

The binders below were run against T3, B7-H3 (NCBI Reference Sequence: …) (assay: cell-based or functional assay).

| Binder | IC50 (nM), in-vitro cytotoxicity, CCK8 [nM] |
| --- | --- |
| B6 | 0.77 |

The binders below were run against T4, B7-H3 on Calu-6 cells (assay: cell-based or functional assay).

| Binder | IC50 (nM), in-vitro cytotoxicity, CCK8 [nM] |
| --- | --- |
| B6 | 68.8 |

What follows are binders tested against T6, VISTA (NCBI Reference Sequence: …) (assay: flow cytometry on VISTA-CHO cells).

| binding result | Binder |
| --- | --- |
| no binding (tested: 100 nM) | B3 |
| no binding (tested: 100 nM) | B4 |
| no binding (tested: 100 nM) | B5 |

These binders were tested against T7, Tim3 (NCBI Reference Sequence: …) (assay: flow cytometry on Tim3-CHO cells).

| binding result | Binder |
| --- | --- |
| no binding (tested: 100 nM) | B3 |
| no binding (tested: 100 nM) | B4 |
| no binding (tested: 100 nM) | B5 |

What follows are binders tested against T5, antigen hB7-H3-His (assay: SPR, BiaCore T200, antibody captured on Protein A chip, hB7-H3-His as analyte, 1:1 model).

| Kd [nM] | koff [s⁻¹] | kon [M⁻¹ s⁻¹] | Binder |
| --- | --- | --- | --- |
| 0.372 | 0.000279 | 750000 | B1 |
| 383 | 0.0491 | 128000 | B7 |
| 0.986 | 0.00024 | 244000 | B2 |

Each binder was assayed against T1, Lag3 (NCBI Reference Sequence: …) (assay: flow cytometry on Lag3-CHO cells).

| binding result | Binder |
| --- | --- |
| no binding (tested: 100 nM) | B3 |
| no binding (tested: 100 nM) | B4 |
| no binding (tested: 100 nM) | B5 |

These binders were tested against T6, VISTA (NCBI Reference Sequence: …) (assay: flow cytometry on VISTA-CHO cells; blank P3 0.1%; the filing says V1-V5 did not bind).

| % of cells in gate P3 at 100 nM [%] | Binder |
| --- | --- |
| 1.8 | B3 |
| 0.9 | B4 |
| 0.2 | B5 |

The binders below were run against T8, hB7-H3-Fc (assay: ELISA on coated hB7-H3-Fc (2 ug/mL), HRP anti-human kappa secondary, A450, antibody from 300 nM in 3-fold dilutions; axis 'Concentration' has no unit, nM from p-1066).
T8 construct: also called antigen hB7-H3-Fc
T8 sequence (fusion chain, as listed by the source limits assumed): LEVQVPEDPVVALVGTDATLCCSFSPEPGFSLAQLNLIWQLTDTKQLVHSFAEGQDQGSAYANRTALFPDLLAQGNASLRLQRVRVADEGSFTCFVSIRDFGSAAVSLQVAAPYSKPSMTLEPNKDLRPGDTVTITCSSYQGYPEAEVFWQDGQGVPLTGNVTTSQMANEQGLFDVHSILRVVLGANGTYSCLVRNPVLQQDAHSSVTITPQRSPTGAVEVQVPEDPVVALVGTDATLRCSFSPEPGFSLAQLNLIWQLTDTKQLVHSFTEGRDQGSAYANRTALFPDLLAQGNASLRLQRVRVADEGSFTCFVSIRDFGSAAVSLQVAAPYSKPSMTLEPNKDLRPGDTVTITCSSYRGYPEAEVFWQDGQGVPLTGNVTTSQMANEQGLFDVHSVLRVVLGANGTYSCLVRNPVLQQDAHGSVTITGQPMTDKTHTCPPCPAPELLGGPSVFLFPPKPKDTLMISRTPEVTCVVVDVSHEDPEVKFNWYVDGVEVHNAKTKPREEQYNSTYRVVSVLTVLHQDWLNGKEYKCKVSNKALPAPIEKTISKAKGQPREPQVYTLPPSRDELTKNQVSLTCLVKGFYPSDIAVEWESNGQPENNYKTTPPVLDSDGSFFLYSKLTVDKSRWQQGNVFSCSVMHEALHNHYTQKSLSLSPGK

| EC50 [nM] | Binder |
| --- | --- |
| 2.66 | B3 |
| 3.95 | B4 |
| 8.24 | B5 |
| 3.69 | B1 |
| 3.73 | B2 |

These binders were tested against T2, B7-H3 on MDA-MB-468 cells (assay: flow cytometry on MDA-MB-468 cells, PE anti-human IgG Fc secondary, antibody from 100 nM in 3-fold dilutions; axis 'Concentration' has no unit, nM from p-1056).

| EC50 [nM] | Binder |
| --- | --- |
| 1.54 | B1 |
| 69.3 | B7 |
| 8.54 | B2 |

The binders below were run against T1, Lag3 (NCBI Reference Sequence: …) (assay: flow cytometry on Lag3-CHO cells, PE anti-human IgG Fc secondary).

| binding result | Binder |
| --- | --- |
| no binding (tested: 100 nM) | B1 |
| no binding (tested: 100 nM) | B2 |
